Measured values: article PMC5468090

Key:
Assay in all cases: SPR
XRCC4-Ala;XLF-Ala = settings: 1 uM each; described as similar to WT-WT; EMSA: 10 mM HEPES pH 8, 75 mM KCl, 0.5 mM EDTA, 0.5 mM DTT, 5% glycerol, RT 30 min, 200 ng DNA/10 ul; SPR: 20 mM HEPES pH 8, 75 mM KCl, 10% glycerol, 1 mM DTT …
XRCC4-Ala;XLF-WT = settings: 1 uM each; described as similar to WT-WT; EMSA: 10 mM HEPES pH 8, 75 mM KCl, 0.5 mM EDTA, 0.5 mM DTT, 5% glycerol, RT 30 min, 200 ng DNA/10 ul; SPR: 20 mM HEPES pH 8, 75 mM KCl, 10% glycerol, 1 mM DTT …
XRCC4-Asp;XLF-Asp = settings: 1 uM each; koff_fast 4-fold faster than WT-WT; EMSA: 10 mM HEPES pH 8, 75 mM KCl, 0.5 mM EDTA, 0.5 mM DTT, 5% glycerol, RT 30 min, 200 ng DNA/10 ul; SPR: 20 mM HEPES pH 8, 75 mM KCl, 10% glycerol, 1 mM DTT …
XRCC4-WT;XLF-Ala = settings: 1 uM each; described as similar to WT-WT; EMSA: 10 mM HEPES pH 8, 75 mM KCl, 0.5 mM EDTA, 0.5 mM DTT, 5% glycerol, RT 30 min, 200 ng DNA/10 ul; SPR: 20 mM HEPES pH 8, 75 mM KCl, 10% glycerol, 1 mM DTT …
XRCC4-WT;XLF-WT = settings: 1 uM each; EMSA: 10 mM HEPES pH 8, 75 mM KCl, 0.5 mM EDTA, 0.5 mM DTT, 5% glycerol, RT 30 min, 200 ng DNA/10 ul; SPR: 20 mM HEPES pH 8, 75 mM KCl, 10% glycerol, 1 mM DTT …

Q: 400 bp SPR DNA was tested. Which binding signal (fold equilibrium affinity vs WT-WT) (XRCC4-Ala;XLF-Ala) did it give?
A: 1

Q: And the binding signal (fold equilibrium affinity vs WT-WT) (XRCC4-Ala;XLF-WT)?
A: 1

Q: What about the binding signal (fold equilibrium affinity vs WT-WT) (XRCC4-Asp;XLF-Asp) of the same substance?
A: 0.25

Q: What about the binding signal (fold equilibrium affinity vs WT-WT) (XRCC4-WT;XLF-Ala) of the same substance?
A: 1

Q: And the binding signal (fold equilibrium affinity (reference)) (XRCC4-WT;XLF-WT)?
A: 1
